What was measured:
Type in all cases: cell-based
HT-29 = test: Cell viability (CellTiter-Glo) cytotoxicity assay, INBRX-109 x onvansertib matrix, 48 h; details: HT-29
Description: (§1) Monolayer cultures of each cell line were harvested for compound screening as detailed below.
(§2) Onvansertib: A 10 mg stock of onvansertib was purchased from Selleck Chemicals and was resuspended to 10 mM in DMSO. This was then aliquoted and stored at −80° C. Aliquots were thawed immediately prior to dilution and use in the assay. A 500× master plate of serial dilutions (6-point 5-fold dilutions in 100% DMSO starting at 500 μM, plus a DMSO only control) was prepared and mixed gently with a pipette. To generate a 5× working dilution plate of onvansertib, a 1:100 dilution was performed from the 500× plate into complete media (EMEM).
(§3) Also on day 2, test and control articles were added.
(§4) On day 4, viability measurements were taken. […] Data was graphed in GraphPad Prism 9.

LS174T [1] = test: as above
Description: as §1, §2, §3, §4

LS411N = test: as above
Description: as §1, §2, §3, §4

SW1463 = test: as above; details: SW1463
Description: as §1, §2, §3, §4

SW620 = test: as above; details: SW620; INBRX-109 only (Table 1)
Description: as §1, §2, §3, §4

SW837 = test: as above; details: SW837
Description: as §1, §2, §3, §4

HT-55 = test: Cytotoxicity assay, colorectal cancer cell line panel, onvansertib +/- 1 nM INBRX-109; details: HT-55; 1 nM INBRX-109 only
Description: as §1, §3, §4
(§5) The results for a panel of colorectal cancer cell lines are shown in Table 3 and FIGS. 4-6, and the results for a panel of pancreatic cell lines are shown in Table 4 and FIGS. 7 and 8.

LS174T [2] = test: as above; details: 1 nM INBRX-109 only
Description: as §1, §3, §4, §5

SW-48 = test: as above; details: SW-48; 1 nM INBRX-109 only
Description: as §1, §3, §4, §5

AsPC-1 = test: Cytotoxicity assay, pancreatic cell line panel, onvansertib +/- 1 nM INBRX-109; details: AsPC-1; 1 nM INBRX-109 only
Description: as §1, §3, §4, §5

BxPC-3 = test: as above; details: BxPC-3; 1 nM INBRX-109 only
Description: as §1, §3, §4, §5

CFPAC-1 = test: as above; details: CFPAC-1; 1 nM INBRX-109 only
Description: as §1, §3, §4, §5

Capan-1 = test: as above; details: Capan-1; 1 nM INBRX-109 only
Description: as §1, §3, §4, §5

Capan-2 = test: as above; details: Capan-2; 1 nM INBRX-109 only
Description: as §1, §3, §4, §5

HPAF-II = test: as above; details: 1 nM INBRX-109 only
Description: as §1, §3, §4, §5

HuP-T4 = test: as above; details: HuP-T4; 1 nM INBRX-109 only
Description: as §1, §3, §4, §5

KP4 = test: as above; details: KP4; 1 nM INBRX-109 only
Description: as §1, §3, §4, §5

MIA PaCa-2 = test: as above; details: MIA PaCa-2; 1 nM INBRX-109 only
Description: as §1, §3, §4, §5

PANC-1 = test: as above; details: PANC-1; 1 nM INBRX-109 only
Description: as §1, §3, §4, §5

PL45 = test: as above; details: PL45; 1 nM INBRX-109 only
Description: as §1, §3, §4, §5

PSN-1 = test: as above; details: PSN-1; 1 nM INBRX-109 only
Description: as §1, §3, §4, §5

Panc 03.27 = test: as above; details: Panc 03.27; 1 nM INBRX-109 only
Description: as §1, §3, §4, §5

Panc 05.04 = test: as above; details: Panc 05.04; 1 nM INBRX-109 only
Description: as §1, §3, §4, §5

Panc 10.05 = test: as above; details: Panc 10.05; 1 nM INBRX-109 only
Description: as §1, §3, §4, §5

SU.86.86 = test: as above; details: SU.86.86; 1 nM INBRX-109 only
Description: as §1, §3, §4, §5

SW-1990 = test: as above; details: SW-1990; 1 nM INBRX-109 only
Description: as §1, §3, §4, §5

B1: INBRX-109: DR5-binding polypeptide consisting of SEQ ID NO: 7 (two VHH domains and an Fc region); DR5 agonist (protein)
chain: EVQLLESGGGEVQPGGSLRLSCAASGLTFPNYGMGWFRQAPGKEREFVSAIYWSGGTVYYAESVKGRFTISRDNAKNTLYLQMSSLRAEDTAVYYCAVTIRGAATQTWKYDYWGQGTLVTVKPGGSGGSEVQLLESGGGEVQPGGSLRLSCAASGLTFPNYGMGWFRQAPGKEREFVSAIYWSGGTVYYAESVKGRFTISRDNAKNTLYLQMSSLRAEDTAVYYCAVTIRGAATQTWKYDYWGQGTLVTVKPGGGGDKTHTCPPCPAPGGPSVFLFPPKPKDTLMISRTPEVTCVVVDVSHEDPEVKFNWYVDGVEVHNAKTKPREEQYNSTYRVVSVLTVLHQDWLNGKEYKCKVSNKALPAPIEKTISKAKGQPREPQVYTLPPSRDELTKNQVSLTCLVKGFYPSDIAVEWESNGQPENNYKTTPPVLDSDGSFFLYSKLTVDKSRWQQGNVFSCSVMHEALHNHYTQKSLSLSPGK
modifications: INBRX-109
notes: DR5 agonist
- Max Cytotox (HT-29; INBRX-109 + 200 nM onvansertib): 94.94%
- EC50 (HT-29; INBRX-109 only (Table 1)): 11.6 pM
- Max Cytotox (HT-29; INBRX-109 only (Table 1)): 71.42%
- EC50 (LS174T [1]; INBRX-109 + 200 nM onvansertib): 90.7 pM
- Max Cytotox (LS174T [1]; INBRX-109 + 200 nM onvansertib): 79.32%
- EC50 (LS174T [1]; INBRX-109 only (Table 1)): 10.7 pM
- Max Cytotox (LS174T [1]; INBRX-109 only (Table 1)): 59.68%
- Max Cytotox (LS411N; INBRX-109 + 200 nM onvansertib): 88.9%
- EC50 (LS411N; INBRX-109 only (Table 1)): Unstable
- EC50 (SW1463; INBRX-109 + 200 nM onvansertib): 4.95 pM
- Max Cytotox (SW1463; INBRX-109 + 200 nM onvansertib): 73.74%
- EC50 (SW1463; INBRX-109 only (Table 1)): 66 pM
- Max Cytotox (SW1463; INBRX-109 only (Table 1)): 38.14%
- EC50 (SW620): 4.78 pM
- Max Cytotox (SW620): 20.25%
- Max Cytotox (SW837; INBRX-109 + 200 nM onvansertib): 80.64%
- EC50 (SW837; INBRX-109 only (Table 1)): 1.23 pM
- Max Cytotox (SW837; INBRX-109 only (Table 1)): 6.43%
- Max Cytotox at 1 nM (HT-55): 48.4%
- Max Cytotox at 1 nM (LS174T [2]): 41.2%
- Max Cytotox at 1 nM (SW-48): 93.9%
- Max Cytotox at 1 nM (AsPC-1): 14.5%
- Max Cytotox at 1 nM (BxPC-3): 51.3%
- Max Cytotox at 1 nM (CFPAC-1): 23.8%
- Max Cytotox at 1 nM (Capan-1): 86.9%
- Max Cytotox at 1 nM (Capan-2): 11.1%
- Max Cytotox at 1 nM (HPAF-II): 22.8%
- Max Cytotox at 1 nM (HuP-T4): 80.7%
- Max Cytotox at 1 nM (KP4): 7.8%
- Max Cytotox at 1 nM (MIA PaCa-2): 77.9%
- Max Cytotox at 1 nM (PANC-1): 32.6%
- Max Cytotox at 1 nM (PL45): 14.1%
- Max Cytotox at 1 nM (PSN-1): 91.9%
- Max Cytotox at 1 nM (Panc 03.27): 53.2%
- Max Cytotox at 1 nM (Panc 05.04): 97.0%
- Max Cytotox at 1 nM (Panc 10.05): 23.8%
- Max Cytotox at 1 nM (SU.86.86): 92.5%
- Max Cytotox at 1 nM (SW-1990): 54.7%
